Experimental data reported in patent US8629107B2, “Genes and proteins associated with angiogenesis and uses thereof” (National Jewish Health, priority 2005, dated 2014).

B1: lumican: SLRP family secreted proteoglycan stably expressed in MB114 cells by retroviral transduction (protein, UniProt P51885 19-338, looked up)
Lumican: QYYDYDIPLFMYGQISPNCAPECNCPHSYPTAMYCDDLKLKSVPMVPPGIKYLYLRNNQIDHIDEKAFENVTDLQWLILDHNLLENSKIKGKVFSKLKQLKKLHINYNNLTESVGPLPKSLQDLQLTNNKISKLGSFDGLVNLTFIYLQHNQLKEDAVSASLKGLKSLEYLDLSFNQMSKLPAGLPTSLLTLYLDNNKISNIPDEYFKRFTGLQYLRLSHNELADSGVPGNSFNISSLLELDLSYNKLKSIPTVNENLENYYLEVNELEKFDVKSFCKILGPLSYSKIKHLRLDGNPLTQSSLPPDMYECLRVANEITVN
B2: SMOC-2: secretory protein stably expressed in MB114 cells by retroviral transduction (protein, UniProt Q8CD91 22-447, looked up)
SPARC-related modular …: QKFSALTFLRVDQDKDRDCSLDCPSSPQKPLCASDGRTFLSRCEFQRAKCKDPQLEIAHRGNCKDVSRCVAERKYTQEQARKEFQQVFIPECNDDGTYSQVQCHSYTGYCWCVTPNGRPISGTAVAHKTPRCPGSINEKVPQREGAGKADDAAAPALETQPQGDEEDIASRYPTLWTEQVKSRQNKTNKNSASSCDQEHQSALEEAKQPKNDNVVIPECAHGGLYKPVQCHPSTGYCWCVLVDTGRPIPGTSTRYEQPKCDNTARAHPAKARDLYKNRPLQGCPGAKKHEFLTSVLDALSTDMVHAVSDPSSSSGRLSEPDPSHTLEERVVHWYFKLLDKNSSGDIGKKEIKPFKRFLRKKSKPKKCVKKFVEYCDMNNDKSITVQELMGCLGVTREEGKANTRKRHTPRGNAESSSSNRQPRKQG

Experiments:
[1] = test system: vessel formation and infiltration into Matrigel plugs; assay: Matrigel plug implantation assay; format: in vivo, C57BL/6 mice
Protocol: The effect of MAGP-2 on vessel formation and infiltration into Matrigel plugs implanted into genetically normal mice was determined as described (Albig et al, 2006). Briefly, phenol red-free Matrigel (BD biosciences, Bedford, Mass.) was mixed with PBS (diluent), bFGF (50 or 300 ng/ml; R&D Systems, Minneapolis, Minn.), or recombinant MAGP-2 (1 μg/ml) together with bFGF (50 ng/ml), and the resulting mixtures were injected twice subcutaneously in the ventral groin area (400 μl/injection) of C57BL/6 mice. The mice were sacrificed 10 days post-implantation and the Matrigel plugs were dissected, fixed overnight in 10% formalin, and sectioned in the National Jewish Histology Laboratory. Afterward, Masson's trichrome staining was performed to visualize infiltrating vessels, which were quantified under a light microscope by determining the average number of vessels present in 5 random fields (200× magnification). Only those fields that contained at least one vessel in the area underlying the skin were tallied. Two mice were used per experimental condition and this experiment was performed three times in its entirety. All animal studies were performed according to protocol procedures approved by the Animal Care and Use Committee at National Jewish Medical and Research Center.
The inventors tested this hypothesis by utilizing the Matrigel plug implantation assay, which monitors the ability of various angiogenic agents to alter vessel formation and infiltration into Matrigel plugs implanted subcutaneously into normal mice. […] MAGP-2 purity was monitored by coomassie staining, and by immunoblotting with anti-FLAG M2 monoclonal antibodies (FIG. 2A; right panel). rMAGP-2 (1 μg/ml) stimulated angiogenic sprouting of quiescent MB114 cell monolayers (FIG. 2A; left panel). […] Afterward, the Matrigel plugs were fixed, sectioned, and stained with Masson's trichrome to visualize infiltrating blood vessels (FIG. 2B; right panels; arrows denote blood vessels), which were quantified by manual counting under a light microscope. […]

MB114 cells [2] = assay: angiogenic sprouting in rat tail collagen matrices; format: cell-based, murine; conditions: MB114 cells stably expressing the transgene vs GFP; 10% FBS, 5 days
Protocol: (§1) The effect putative angiogenic agents had on MB114 cell activities were determined as follows: (i) cell proliferation using a [^3H]thymidine incorporation assay as described (Albig et al, 2006; Albig and Schiemann, 2004; Albig and Schiemann, 2005); (ii) cell invasion through Matrigel matrices using a modified Boyden-chamber assay as described (Albig et al, 2006; Albig and Schiemann, 2004; Albig and Schiemann, 2005); (iii) p38 MAPK phosphorylation using immunoblot analyses as described (Albig et al, 2006; Albig and Schiemann, 2004; Albig and Schiemann, 2005); (iv) angiogenic sprouting in rat tail collagen matrices as described (Albig et al, 2006; Albig and Schiemann, 2004); and (v) Hes1- and SBE-driven luciferase reporter gene assays as described (Albig et al, 2006; Albig and Schiemann, 2004; Albig and Schiemann, 2005).
Finally, it was determined whether expression of these putative angiogenic factors could effect the angiogenic sprouting of quiescent MB114 cells monolayers. MB114 cells expressing either GFP or various putative angiogenic agents were grown to confluency, and subsequently were overlaid with rat tail collagen matrices. Angiogenic sprouting by quiescent EC monolayers was stimulated by inclusion of 10% FBS and allowed to proceed for 5 days. The quantity of invading angiogenic sprouts was determined by manual counting under a light microscope.
Based on the findings described in the Examples above, the inventors hypothesized that MAGP-2 promotes angiogenesis by antagonizing Notch1 signaling. To test this hypothesis, it was first determined whether inhibiting Notch signaling in MB114 cells would enhance their angiogenic sprouting. In doing so, MB114 cells were transiently transfected with the Hes1-luciferase reporter gene (and pCMV-β-gal cDNA as control), and subsequently were treated overnight with or without the highly specific gamma-secretase inhibitor, DAPT (Sastre et al, 2001), which inhibits S3-mediated cleavage of Notch1 and, consequently, NICD-mediated induction of Hes1 expression. Afterward, luciferase and β-gal activities were determined. […] In this experiment, quiescent MB114 cell monolayers were overlaid with rat tail collagen matrices, and were induced to form angiogenic sprouts by addition of 10% FBS supplemented with or without DAPT (10 μM). Five days later the number of invading angiogenic spouts were quantified by manual counting on a light microscope. Based on these findings, the inventors conclude that Notch activation functions in mediating angiostasis in MB114 cells. […] Collectively, these findings indicate that Notch1 signaling antagonizes angiogenic sprouting in MB114 cells, and that downregulation of Notch1 signaling components is necessary for angiogenesis activation in MB114 cells.
Having shown that Notch1 signaling mediates angiostasis in MB114 cells, the inventors next asked whether MAGP-2 promotes angiogenesis in MB114 cells via its ability to antagonize Notch signaling. To do so, MAGP-2-expressing MB114 cells were engineered to constitutively express active Notch1 NICD fragment in an attempt to overcome the block of Notch processing mediated by MAGP-2. More particularly, GFP-, MAGP-2-, and MAGP-2/N1ICD-expressing MB114 cells were transiently transfected with pHes1-luciferase and pCMV-β-gal cDNAs. Luciferase and β-gal activities were determined 48 h post-transfection. As the inventors observed previously, MAGP-2 expression reduced Hes1-luciferase activity in MB114 cells (FIG. 5C), a reaction that was bypassed by co-expression of NICD in these cells (FIG. 5C). […] In this experiment, quiescent monolayers of GFP-, MAGP-2-, and MAGP-2/N1ICD-expressing MB114 cells were overlaid with rat tail collagen matrices and incubated in the absence or presence of 10% FBS for 5 days. Afterward, the number of invading angiogenic sprouts were determined by manual counting under a light microscope.

MCA102 fibrosarcomas = MCA102 fibrosarcomas produced in mice; format: in vivo
p38 MAPK = p38 MAPK phosphorylation by immunoblot analyses; format: cell-based, murine; conditions: serum-starved MB114 cells expressing the transgene; bFGF 50 ng/ml or EGF 10 ng/ml, 0-15 min
Protocol: as §1
The inventors' previous studies have associated stimulation of p38 MAPK activity with angiogenesis of MB114 cells and, conversely, inhibition of p38 MAPK activity with angiostasis of MB114 cells (Albig et al, 2006; Albig and Schiemann, 2004; Albig and Schiemann, 2005). […] The phosphorylation status of p38 MAPK was determined by immunoblotting whole cell lysates with phospho-specific p38 MAPK antibodies (p38-P). Differences in protein loading were monitored by reprobing stripped membranes with anti-p38 MAPK polyclonal antibodies (p38).

MB114 cells [3] = assay: cell proliferation, [3H]thymidine incorporation assay; format: cell-based, murine
Protocol: as §1
(§2) FIG. 1A show results from an experiment in which serum-starved MB114 cells, stably expressing either GFP or various putative angiogenic agents, were stimulated in the absence or presence of either bFGF (50 ng/ml) or EGF (10 ng/ml) for 24 h at 37° C. Differences in MB114 cell DNA synthesis was determined by measuring [^3H]thymidine incorporation into cellular DNA. […] In this experiment, invasion of MB114 cells expressing either GFP or various putative angiogenic agents through synthetic basement membranes was determined over 48 h using a modified Boyden-chamber assay.

MB114 cells [4] = assay: cell invasion through Matrigel matrices, modified Boyden-chamber assay; format: cell-based, murine; conditions: MB114 cells stably expressing the transgene vs GFP; 48 h
Protocol: as §1, §2

| Molecule | vascularization of implanted Matrigel plugs ([1]; 50 or 300 ng/ml in Matrigel vs diluent, subcutaneous, C57BL/6 mice, day 10) | angiogenic sprouting of quiescent MB114 cell monolayers (MB114 cells [2]) | growth of MCA102 fibrosarcomas produced in mice (MCA102 fibrosarcomas; unpublished observation) | blood vessel density of MCA102 fibrosarcomas produced in mice (MCA102 fibrosarcomas; unpublished observations) | p38 MAPK phosphorylation (p38 MAPK) | development and infiltration of vessels in Matrigel plugs implanted into mice ([1]; unpublished observations) | MB114 cell proliferation (MB114 cells [3]; transgene expression in MB114 cells, data not shown) | MB114 cell invasion through synthetic basement membranes (MB114 cells [4]) | proliferative response of MB114 cells to bFGF ([3H]thymidine incorporation into cellular DNA) (MB114 cells [3]; serum-starved MB114 cells stably expressing the transgene vs GFP, bFGF 50 ng/ml, 24 h, 37° C.) |
| --- | --- | --- | --- | --- | --- | --- | --- | --- | --- |
| bFGF: growth factor (R&D Systems) mixed into Matrigel at 50 or 300 ng/ml [reference compound] | dose-dependently stimulated |  |  |  |  |  |  |  |  |
| B1 |  | significantly decreased | decreases | decreases | significantly inhibited | antagonizes | inhibit |  |  |
| B2 |  | significantly increased |  |  |  |  |  | significantly induced | significantly enhanced |
